{"source": "the RNAGym collection of RNA variant scans (doi:10.1073/pnas.2313332121)", "parents": {"B1": {"name": "TPR 5TU (parent)", "chain": "GGAUCUUCUCGAUCUAACAAAAAAGACAAAUCUGCCACAAAGCUUGAGAGCAUCUUCGGAUGCAGAGGCGGCAGCCUUCGGUGGCGCGAUAGCGCCAACGUUCUCAACUAUGACACGCAAAACGCGUGCUCCGUUGAAUGGAGUUUAUCAUG"}}, "note": "Fewer inactive variants are shown than the library holds."}
{"variants_of": "B1", "assay": "polymerase ribozyme fitness, log enrichment relative to wild type (log ratio); higher = more active; in vitro selection for triplet polymerase activity", "summary_of_the_method": "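PCR was used to build mutant libraries for each subunit of a heterodimeric triplet polymerase ribozyme, which were then transcribed. A single in vitro selection round, in triplicate, used a frozen incubation at −7 °C and recovered extended constructs by gel excision, streptavidin beads and RT-PCR. Fitness is the logarithm of genotype enrichment relative to wild-type enrichment, averaged over replicates with inverse-variance weights. The logarithm is base 2, and after Illumina sequencing only genotypes with ≥10 input reads and ≥1 read per output were kept.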"}
{"variant": "GGAUCUUCUCGAUCUAACAAAAAAGACAAACCUGCCACAAAGCUUGAGAGCAUCUUCGGAUGCAGAGGCGGCAGCCUUCGGUGGCGCGAUAGCGCCAACGCUCUCAACUAUGACACGCAAAACACGUGCUCCGUUGAAUGGAGUUUAUCAUG", "note": "[U31C U101C G124A]", "polymerase ribozyme fitness (log ratio)": 1.05}
{"variant": "GGAUCUUCUCGAUCUAACAAAAAAGACAAACCUGCCACAAAGCUUGAGAACAUCUUCGGAUGCAGAGGCGGCAGCCUUCGGUGGCGCGAUAGCGCGAACGUUCUCAACUAUGACACGCAAAACGCGUGCUCCGUUGAAUGGAGUUUAUCAUG", "note": "[U31C G50A C96G]", "polymerase ribozyme fitness (log ratio)": -0.777}
{"variant": "GGAUCUUCUCGAUCUAACAAAAAAGACAAACCUGCCACAAAGCUUGAGAGCAUCUUCGGAUGCAGAGGCGGCAGCCUUCGGUGGCCCGAUAGUGCCAUCGUUCUCAACUAUGACACGCAAAACGCGUGCUCCGUUGAAUGGAGUUUAUCAUG", "note": "[U31C G86C C93U A98U]", "polymerase ribozyme fitness (log ratio)": -1.96}
{"variant": "GGAUCUUCUCGAUCUAACAAAAAAGACAAACCUGCCACAAAGCUUGAGAGCAUCUUCGGAUGCAGAGGCGGCAGCCUUCGGUGGCGCGAUAGCGCCAACGUACUCAACUAUGACACGCAAAACGCGUGCUCCGUUGAAUGGAGUUUAUCAUG", "note": "[U31C U102A]", "polymerase ribozyme fitness (log ratio)": 0.128}
{"variant": "GGAUCUUCUCGAUCUAACAAAAAAGACAAACCUGCCACAAAGCUUCAGAGCAUCUUCGGAUGCAGAGGCGGCAGCCUUCGGUGGCGCGAUAACGCCAACGUUCUCAACUAUGACACGCAAAACGCGUGCUCCGUUGAAUGGAGUUUAUCAUG", "note": "[U31C G46C G92A]", "polymerase ribozyme fitness (log ratio)": -3.48}
{"variant": "GGAUCUUCUCGAUCUAACAAAAAAGACAAACCUGCCACAAAGCUUGAGAGCAGCUUCGGAUGCAGAGGCGGCAGCCUUCGGUGGCGCGAUAGCGCCAACGUUCUCAACUAUGACACGCAAAACGCGUGCUCCGUUGAAUGGAGUUUAUCAUG", "note": "[U31C U53G]", "polymerase ribozyme fitness (log ratio)": -0.735}
{"variant": "GGAUCUUCUCGAUCUAACAAAAAAGACAAACCUGCCACAAAGCUUGAGAGCAUCUUCGGAUGCAGAGGCGGCAGCCUUCGGUCGCGCGAUAGCGCCAACGUUCUCAACUAUGACACGCAAAACGCGUGCUCCGUUGAAUCGAGUUUAUCAUG", "note": "[U31C G83C G140C]", "polymerase ribozyme fitness (log ratio)": -4.18}
{"variant": "GGAUCUUCUCGAUCUAACAAAAAAGACAAACCUGCCACAAAACGUGAGAGCAUCUUCGGGUGCAGGGGCGGCAGCCUUCGGAGGAGCGAUAGCGCCAACGUUCUCAACUAUGACACGCAAAACGCGUACUCCGUUGAAUGGAGUUUAUCAUG", "note": "[U31C G42A U44G A60G A66G U82A C85A G128A]", "polymerase ribozyme fitness (log ratio)": "≤ -4.2"}
{"variant": "GGAUCUUCUCGAUCUAACAAAAAAGACAAACCCGCCACAAAGCUUGAGAUCAUCUUCGGAUGCAGAGGCGGCAGCUUUCGGUCGCGCGAUAGCGCCAACGUUCUCAACUAUGACACGCAAAACGCGUGCUCCGUUGAAUGGAGUUUAUCAUG", "note": "[U31C U33C G50U C76U G83C]", "polymerase ribozyme fitness (log ratio)": "≤ -4.2"}
{"variant": "GGAUCUUCUCGAUCUAACAAAAAAGACAAACCUGCCACAAAGCUUGAGAGCAUCUACCGAUGCAGAGGCGGCAGCCUUCGGUGGCGCGAUAGCGCCAUCGUUCUCAACUAUGACACGCAAAACGCGUGCUCCGUUGAAUGGAGUUUAUUAUG", "note": "[U31C U56A G58C A98U C149U]", "polymerase ribozyme fitness (log ratio)": 0.414}
{"variant": "GGAUCUUCUCGAUCUAACAAAAAAGACAAAGCUGCCUCAACGCUUGAGAGCAUCUUCGGAUGCAGAGGCGGCAGUGUUCGGUGGCGCGAUAGCGCUAACGUUCUUAACUAUGACACUCAAAACGCGUGCUCCUCUGAAUGGAGUUUAUCAUG", "note": "[U31G A37U A41C C75U C76G C96U C105U G117U G133U U134C]", "polymerase ribozyme fitness (log ratio)": "≤ -4.2"}
{"variant": "GGAUCUUCUCGAUCUAACAAAAAAGACAAACCUGCCACAAAGCUUGAGAGCAGCUUCGGAUGCAGACGCGGCAGCGUUCGGUAGCGCGAUAGCGCCAACGUUCUCAACUAUGACACGCAAAACGCGUGCUCCGUUGAAUGGAGUUUAUCAUG", "note": "[U31C U53G G67C C76G G83A]", "polymerase ribozyme fitness (log ratio)": -3.62}
{"variant": "GGAUCUUCUCGAUCUAACAAAAAAGACAAACCUGCCACAAAGCUUGAGAGCAUCAUCGGAUGCAGAGGCGGCAGCCUUCGGUGGCGCGAUAGCGCCAACGUUCUCAACUAUGACACGCAAAACGCGUGCUCCGUUUAAUGGAGUUUAUCGUG", "note": "[U31C U55A G136U A150G]", "polymerase ribozyme fitness (log ratio)": -1.81}
{"variant": "GGAUCUUCUCGAUCUAACAAAAAAGACAAACCUGCCACAAAGCUUGAGAGCAUCUUCGGAUGCAGAGGCGGCAGCCUUCGGUGACGCGAUAGCGCCAACGUUCUCAACUAUGACACGCAAAACGCGUGCUCCGUUGAAUGGAGUUUAUCAUG", "note": "[U31C G84A]", "polymerase ribozyme fitness (log ratio)": 0.831}
{"variant": "GGAUCUUCUCGAUCUAACAAAAAAGACAAAGCUGCCCCAAAGCUUGAGAGCAUCUUCGGAUGCAGAGGCGGCAGCCUUCGGUGGCGCGAUAGCGCCAACGUUCUCAACUAUGACACGCAAAACGCUUGCUCCGUUGAAUGGAGUUUAUCAUG", "note": "[U31G A37C G126U]", "polymerase ribozyme fitness (log ratio)": -2.65}
{"variant": "GGAUCUUCUCGAUCUAACAAAAAAGACAAACCUGCCACAAAGCUUGAGAGCAUCUUCGGAUGCAGAGGCGGCAGCCUUCGGUGGCUCGAUAGCGCUAACGUUCUCAACUAUGACACGCAAAACGCGUGCUCCGUUGAAUGGAGUUUAUCAUG", "note": "[U31C G86U C96U]", "polymerase ribozyme fitness (log ratio)": -0.694}
{"variant": "GGAUCUUCUCGAUCUAACAAAAAAGACAAACCUGCCACAAAGCAUGAGAGCAUAUUCGGAUGCAGAGGCGGCAGCGUUCGGUGGCGCGAUAGCGGCAACGUUCUGAGCUAUGACACGCAAAACGCGUGCUCCGUUGAAUGGAGUUUAUCAUG", "note": "[U31C U44A C54A C76G C95G C105G A107G]", "polymerase ribozyme fitness (log ratio)": -4.01}
{"variant": "GGAUCUUCUCGAUCUAACAAAAAAGACAAACCUGCCACAAAGCUUGAGAGCAUCUUCAGAUGCAGAGGCGGCAGCCUUCGGUGGCGCGAUAGCUCCAACGUUCUCAACUAUGACACGCAAAACGCGUGCUCCGUUGAAUGGAUUUUAUCAUG", "note": "[U31C G58A G94U G143U]", "polymerase ribozyme fitness (log ratio)": -2.9}
{"variant": "GGAUCUUCUCGAUCUAACAAAAAAGACAAACCUGCCACAAAGCUUGAGAGCAUCAUCGGAUGCAGAGGCGGCAGCCUUCGGUGGCGCGAUAGCGCCAACGCUCUCAACUAUGACACGCAAAACGCGUGCUCCGUUGAAUGGAGUUUAUCAUG", "note": "[U31C U55A U101C]", "polymerase ribozyme fitness (log ratio)": 0.401}
